This passage reports Kd results from PMC10786891, “Massively parallel profiling of RNA-targeting CRISPR-Cas13d”.

As a reminder, the Kd is a measure of binding affinity in units of concentration. The low end stands for higher affinity, the high end for lower affinity.

T1: EsCas13d, nuclease-dead (Eubacterium siraeum, UniProt B0MS50, R295A;H300A;R849A;H854A)
T1 sequence: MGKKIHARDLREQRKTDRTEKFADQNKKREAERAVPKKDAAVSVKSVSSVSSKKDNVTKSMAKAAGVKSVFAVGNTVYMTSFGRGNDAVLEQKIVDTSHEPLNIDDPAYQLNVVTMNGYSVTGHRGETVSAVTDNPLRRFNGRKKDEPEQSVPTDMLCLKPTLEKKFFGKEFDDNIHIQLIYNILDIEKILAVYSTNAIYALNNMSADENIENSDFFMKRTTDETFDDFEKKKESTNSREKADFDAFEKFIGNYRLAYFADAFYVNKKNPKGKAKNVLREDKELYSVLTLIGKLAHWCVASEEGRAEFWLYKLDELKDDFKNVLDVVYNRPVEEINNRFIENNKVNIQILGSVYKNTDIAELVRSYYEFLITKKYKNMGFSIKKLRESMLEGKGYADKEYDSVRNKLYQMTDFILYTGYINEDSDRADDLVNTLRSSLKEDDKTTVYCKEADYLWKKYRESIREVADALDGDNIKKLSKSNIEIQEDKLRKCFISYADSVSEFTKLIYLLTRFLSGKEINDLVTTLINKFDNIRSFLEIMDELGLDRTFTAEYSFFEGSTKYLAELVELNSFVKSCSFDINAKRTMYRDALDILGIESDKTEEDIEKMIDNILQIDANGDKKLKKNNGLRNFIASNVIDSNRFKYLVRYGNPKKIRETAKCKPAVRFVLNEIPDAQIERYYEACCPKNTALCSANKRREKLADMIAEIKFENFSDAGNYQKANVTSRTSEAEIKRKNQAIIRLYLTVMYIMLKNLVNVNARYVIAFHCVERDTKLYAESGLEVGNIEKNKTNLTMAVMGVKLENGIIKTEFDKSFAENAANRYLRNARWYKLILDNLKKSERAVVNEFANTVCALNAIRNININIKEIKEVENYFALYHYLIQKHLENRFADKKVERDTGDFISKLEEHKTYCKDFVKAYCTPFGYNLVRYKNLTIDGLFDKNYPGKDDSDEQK

B1: target 1 MT 5'PFS GUG 3'PFS UCA (mixed)
RNA 1: CACCCGUGCAAAAAUGCAGGGGUCUAAAACUGAGCGGAUAACCUCUCUAUGG
RNA 2: GGGAAUGGAUCCACAUCUACGAAUUCGUGCCAUAGAGAGGUUAUCCGCUCAUCAAGAUCGGAAGAGCACACGU
B2: target 1 MT 5'PFS AAU 3'PFS UUC (mixed)
RNA 1: B1 RNA 1
RNA 2: B1 RNA 2 with G27A, U28A, G29U, C53U, A54C
B3: target 1 MT 5'PFS GCA 3'PFS AUU (mixed)
RNA 1: B1 RNA 1
RNA 2: B1 RNA 2 with U28C, G29A, U52A, C53U, A54U
B4: target 1 MT 5'PFS GCU 3'PFS UCC (mixed)
RNA 1: B1 RNA 1
RNA 2: B1 RNA 2 with U28C, G29U, A54C
B5: target 1 MT 5'PFS GGU 3'PFS ACU (mixed)
RNA 1: B1 RNA 1
RNA 2: B1 RNA 2 with U28G, G29U, U52A, A54U
B6: target 1 C2A,U11C (mixed)
RNA 1: B1 RNA 1
RNA 2: B1 RNA 2 with G29A, U41C, C50A, U52C, A54G
B7: target 1 MT 5'PFS CAG 3'PFS UAU (mixed)
RNA 1: B1 RNA 1
RNA 2: B1 RNA 2 with G27C, U28A, C53A, A54U
B8: target 1 MT 5'PFS GUU 3'PFS CAU (mixed)
RNA 1: B1 RNA 1
RNA 2: B1 RNA 2 with G29U, U52C, C53A, A54U
B9: target 1 MT 5'PFS UAG 3'PFS ACC (mixed)
RNA 1: B1 RNA 1
RNA 2: B1 RNA 2 with G27U, U28A, U52A, A54C
B10: target 1 MT 5'PFS UAG 3'PFS ACG (mixed)
RNA 1: B1 RNA 1
RNA 2: B1 RNA 2 with G27U, U28A, U52A, A54G
B11: target 1 MT 5'PFS GUG 3'PFS UCU (mixed)
RNA 1: B1 RNA 1
RNA 2: B1 RNA 2 with A54U
B12: target 1 MT 5'PFS CCU 3'PFS CUA (mixed)
RNA 1: B1 RNA 1
RNA 2: B1 RNA 2 with G27C, U28C, G29U, U52C, C53U
B13: target 1 MT 5'PFS GUC 3'PFS GCG (mixed)
RNA 1: B1 RNA 1
RNA 2: B1 RNA 2 with G29C, U52G, A54G
B14: target 1 MT 5'PFS AGA 3'PFS CGG (mixed)
RNA 1: B1 RNA 1
RNA 2: B1 RNA 2 with G27A, U28G, G29A, U52C, C53G, A54G
B15: target 1 MT 5'PFS GCC 3'PFS AGC (mixed)
RNA 1: B1 RNA 1
RNA 2: B1 RNA 2 with U28C, G29C, U52A, C53G, A54C
B16: target 1 MT 5'PFS UGU 3'PFS AAU (mixed)
RNA 1: B1 RNA 1
RNA 2: B1 RNA 2 with G27U, U28G, G29U, U52A, C53A, A54U
B17: target 1 insG 3' of 18,insC 3' of 11 (mixed)
RNA 1: B1 RNA 1
RNA 2: GGGAAUGGAUCCACAUCUACGAAUUCGUACCAUAGGAGAGGUCUAUCCGCUCACCGAGAUCGGAAGAGCACACGU
B18: target 1 MT 5'PFS AUA 3'PFS CCG (mixed)
RNA 1: B1 RNA 1
RNA 2: B1 RNA 2 with G27A, G29A, U52C, A54G
B19: target 1 MT 5'PFS UAG 3'PFS ACA (mixed)
RNA 1: B1 RNA 1
RNA 2: B1 RNA 2 with G27U, U28A, U52A
B20: target 1 MT 5'PFS GCU 3'PFS CCG (mixed)
RNA 1: B1 RNA 1
RNA 2: B1 RNA 2 with U28C, G29U, U52C, A54G
B21: target 1 MT 5'PFS GCU 3'PFS UCU (mixed)
RNA 1: B1 RNA 1
RNA 2: B1 RNA 2 with U28C, G29U, A54U
B22: target 1 MT 5'PFS GCU 3'PFS UCG (mixed)
RNA 1: B1 RNA 1
RNA 2: B1 RNA 2 with U28C, G29U, A54G
B23: target 1 MT 5'PFS GCC 3'PFS AGU (mixed)
RNA 1: B1 RNA 1
RNA 2: B1 RNA 2 with U28C, G29C, U52A, C53G, A54U
B24: target 1 MT 5'PFS GCA 3'PFS AUG (mixed)
RNA 1: B1 RNA 1
RNA 2: B1 RNA 2 with U28C, G29A, U52A, C53U, A54G
B25: target 1 MT 5'PFS GCU 3'PFS UCA (mixed)
RNA 1: B1 RNA 1
RNA 2: B1 RNA 2 with U28C, G29U
B26: target 1 MT 5'PFS GCU 3'PFS CCU (mixed)
RNA 1: B1 RNA 1
RNA 2: B1 RNA 2 with U28C, G29U, U52C, A54U
B27: target 1 MT 5'PFS CAC 3'PFS UCG (mixed)
RNA 1: B1 RNA 1
RNA 2: B1 RNA 2 with G27C, U28A, G29C, A54G
B28: target 1 MT 5'PFS CCA 3'PFS UUU (mixed)
RNA 1: B1 RNA 1
RNA 2: B1 RNA 2 with G27C, U28C, G29A, C53U, A54U
B29: target 1 MT 5'PFS CAC 3'PFS UCC (mixed)
RNA 1: B1 RNA 1
RNA 2: B1 RNA 2 with G27C, U28A, G29C, A54C
B30: target 1 MT 5'PFS GCA 3'PFS AUA (mixed)
RNA 1: B1 RNA 1
RNA 2: B1 RNA 2 with U28C, G29A, U52A, C53U
B31: target 1 MT 5'PFS CAG 3'PFS UAC (mixed)
RNA 1: B1 RNA 1
RNA 2: B1 RNA 2 with G27C, U28A, C53A, A54C
B32: target 1 MT 5'PFS GCA 3'PFS AUC (mixed)
RNA 1: B1 RNA 1
RNA 2: B1 RNA 2 with U28C, G29A, U52A, C53U, A54C
B33: target 1 MT 5'PFS GCC 3'PFS AGG (mixed)
RNA 1: B1 RNA 1
RNA 2: B1 RNA 2 with U28C, G29C, U52A, C53G, A54G
B34: target 1 MT 5'PFS GCC 3'PFS AGA (mixed)
RNA 1: B1 RNA 1
RNA 2: B1 RNA 2 with U28C, G29C, U52A, C53G
B35: target 1 insU 3' of 12,insU 3' of 6 (mixed)
RNA 1: B1 RNA 1
RNA 2: GGGAAUGGAUCCACAUCUACGAAUUCGUACCAUAGAGAGGUUUAUCCUGCUCACCGAGAUCGGAAGAGCACACGU
B36: target 1 insG 3' of 16,insG 3' of 3 (mixed)
RNA 1: B1 RNA 1
RNA 2: B35 RNA 2 with A38G, G39A, U41G, U48G, G49C, C50U, U51G
B37: target 1 MT 5'PFS AAU 3'PFS UUG (mixed)
RNA 1: B1 RNA 1
RNA 2: B1 RNA 2 with G27A, U28A, G29U, C53U, A54G

Where a chain is given by its changes, count along the chain named. In names and notes the source's numbering stands.

For this series, the target named is T1, EsCas13d, nuclease-dead. Description: crRNA (strand 1, pre-loaded); Mg2+; 40 mM Tris-HCl pH 7.5, 150 mM NaCl, 6 mM MgCl2, 1 mM DTT, 0.1% Tween-20, 0.2 mg/ml BSA; 25 C; 10 min per concentration, then washed. Conditions: tags: His6-TwinStrep-SUMO cleaved; N-terminal SNAP kept (SNAP-Surface 488); label: 3' end held by stalled T7 RNA polymerase.
Turning to B1, binding was characterised by a dissociation constant (Kd) of 14.5 ± 1.45 nM.

Take B2: the Kd is 20 ± 5.5 nM.

B3 showed a Kd of 15.5 ± 2.95 nM.

B4 came in with a Kd of 37.5 ± 13 nM.

B5: the Kd is about 63 nM.

Regarding B6, binding was put at a Kd of 9.5 ± 0.7 nM.

Molecule B7 yielded a Kd of 51.5 ± 21 nM.

The molecule B8 had a Kd of 22.5 ± 7 nM.

In turn, B9 displayed a Kd of 28.5 ± 6.5 nM.

B10 yielded a Kd of 19.1 ± 2.85 nM.

Turning to B11, the Kd worked out at 10.3 ± 0.7 nM.

Take B12: the Kd worked out at 12.5 ± 6 nM.

As to B13, the Kd is 15.5 ± 7.5 nM.

The molecule B14 returned a Kd of 41.5 ± 12.5 nM.

B15 yielded a Kd of 13.1 ± 3.8 nM.

B16 yielded a Kd of about 100 nM.

Molecule B17 yielded a Kd of 99 ± 19 nM.

Consider B18, for which binding was put at a Kd of 62 ± 26.5 nM.

Turning to B19, the Kd came to 31.5 ± 9.5 nM.

In the case of B20, the Kd is 40 ± 10.5 nM.

Molecule B21 displayed a Kd of 30 ± 7 nM.

With B22, the dissociation constant Kd came out at 39 ± 8 nM.

The molecule B23 yielded a Kd of 27 ± 7 nM.

The molecule B24 returned a Kd of 24.5 ± 6 nM.

Turning to B25, the Kd worked out at 27.5 ± 6.5 nM.

The molecule B26 came in with a Kd of about 24.5 nM.

For the molecule B27, the Kd is 8.65 ± 3.7 nM.

Take B28: the Kd was determined as 2.4 ± 0.9 nM.

Regarding B29, binding was put at a Kd of 20.5 ± 6.5 nM.

Molecule B30 came in with a Kd of 25.5 ± 8.5 nM.

Molecule B31 had a dissociation constant (Kd) of 11.9 ± 4 nM.

In turn, B32 registered a Kd of about 28 nM.

In the case of B33, the equilibrium dissociation constant (Kd) worked out at 37 ± 9.5 nM.

In the case of B34, binding was characterised by a dissociation constant (Kd) of 24.5 ± 8 nM.

B35 displayed a Kd of 9.5 ± 0.4 nM.

Regarding B36, the Kd was 16.2 ± 1.1 nM.

B37 gave a Kd of 72 ± 26 nM.
